This note sets out measurements from US20120058906A1 (published 2012).

Test [1] concerns the target T1, rHuman IGF-1 sR (IGF-1 sR), CF (R&D Systems Cat#391-GR) (human, UniProt P08069 31-932).
T1 construct: Bought soluble receptor; also called insulin-like growth factor-1 soluble receptor; IGF-R1
Put plainly: ECL (MSD Multi-Spot) binding assay, antigen spotted on plate; Fab 6 nM; blank spot 191.

In test [2] the target is T2, rHuman P-Cadherin/Fc Chimera, CF (R&D Systems Cat#861-PC) (human, UniProt P22223 108-654).
T2 construct: Bought reagent; also called CDH3; Fc part of the bought chimera not given
Put plainly: ECL (MSD multi-spot), antigen spotted on plate; Fab 1410 nM; blank spot 709.

The target of test [3] is T3, rHuman HGF R/c-MET/Fc Chimera, CF (R&D Systems Cat#358-MT/CF) (human, UniProt P08581 25-932).
T3 construct: Bought reagent; also called HGF R/Fc; hepatocyte growth factor receptor; Fc part of the bought chimera not given
The test is described as above.

The target of test [4] is T4, rHuman EGF R/Fc Chimera, CF (R&D Systems Cat#344-ER) (human, UniProt P00533 25-645).
T4 construct: Bought reagent; also called epidermal growth factor receptor; Fc part of the bought chimera not given
Described as above.

In test [5] the target is T5, rHuman IGF-1 sR (IGF-1 sR), CF (R&D Systems Cat#391-GR) (human, UniProt P08069 31-932).
T5 construct: Bought soluble receptor; also called insulin-like growth factor-1 soluble receptor; IGF-R1
Described as above.

The target in test [6] is T6, rHuman ErbB2/Fc Chimera, CF (R&D Systems Cat#1129-ER) (human, UniProt P04626 23-652).
T6 construct: Bought reagent; also called HER2/neu; human epidermal growth factor 2 receptor; Fc part of the bought chimera not given
The description is as above.

Test [7] concerns the target T7, rHuman CD44/Fc Chimera, CF (R&D Systems Cat#3660-CD) (human, UniProt P16070 21-220).
T7 construct: Bought reagent; Fc part of the bought chimera not given
Described as above.

The target in test [8] is T8, Recombinant Human DLL4 (R&D Systems Cat#1506-D4/CF) (human, UniProt Q9NR61 27-524).
T8 construct: Bought reagent; also called delta-like protein 4
Described as above.

Test [9] deals with T9, rHuman Notch-1/Fc Chimera, CF (R&D Systems Cat#3647-TK) (human, UniProt P46531 19-526).
T9 construct: Bought reagent; Fc part of the bought chimera not given
The test is described as above.

Test [10] concerns the target T10, rHuman Erythropoietin R/Fc Chimera, CF (R&D Systems Cat#963-ER) (human, UniProt P19235 25-250).
T10 construct: Bought reagent; also called EPO R/Fc; Epo R; Fc part of the bought chimera not given
T10 sequence: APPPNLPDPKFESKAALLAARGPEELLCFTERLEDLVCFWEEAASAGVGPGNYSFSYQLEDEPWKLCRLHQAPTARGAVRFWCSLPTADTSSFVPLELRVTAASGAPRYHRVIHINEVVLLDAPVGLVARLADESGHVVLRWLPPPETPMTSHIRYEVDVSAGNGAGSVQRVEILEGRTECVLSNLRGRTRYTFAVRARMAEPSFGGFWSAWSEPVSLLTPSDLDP
Described as above.

The target in test [11] is T11, rHuman P-Cadherin/Fc Chimera, CF (R&D Systems Cat#861-PC) (human, UniProt P22223 108-654).
T11 construct: Bought Fc chimera; Fc part of the bought chimera not given
Briefly: MSD ECL titration, Fab 37.2 nM, blank 199.

The target in test [12] is T12, rHuman EGF R/Fc Chimera, CF (R&D Systems Cat#344-ER) (human, UniProt P00533 25-645).
T12 construct: Bought Fc chimera; Fc part of the bought chimera not given
Put plainly: MSD ECL titration, Fab 37.2 nM, blank 199.

The target in test [13] is T13, rHuman Notch-1/Fc Chimera, CF (R&D Systems Cat#3647-TK) (human, UniProt P46531 19-526).
T13 construct: Bought Fc chimera; Fc part of the bought chimera not given
Put plainly: MSD ECL titration, Fab 37.2 nM, blank 199.

For test [14], the target named is T14, rHuman HGF R/c-MET/Fc Chimera, CF (R&D Systems Cat#358-MT/CF) (human, UniProt P08581 25-932).
T14 construct: Bought Fc chimera; also called HGF R/Fc; Fc part of the bought chimera not given
Put plainly: MSD ECL titration, Fab 37.2 nM, blank 199.

Test [15] deals with T15, rHuman ErbB2/Fc Chimera, CF (R&D Systems Cat#1129-ER) (human, UniProt P04626 23-652).
T15 construct: Bought Fc chimera; also called HER2/neu; Fc part of the bought chimera not given
Briefly: MSD ECL titration, Fab 37.2 nM, blank 199.

Test [16] deals with T16, rHuman IGF-1 sR (insulin-like growth factor-1 soluble receptor), CF (R&D Systems Cat#391-GR) (human, UniProt P08069 31-932).
T16 construct: Bought soluble receptor; also called IGF-R1
Put plainly: MSD ECL titration, Fab 37.2 nM, blank 199.

The target in test [17] is T17, rHuman Erythropoietin R/Fc Chimera, CF (R&D Systems Cat#963-ER) (human, UniProt P19235 25-250).
T17 construct: Bought Fc chimera; also called EPO R/Fc; EPOR; Fc part of the bought chimera not given
T17 sequence: T10 sequence
Put plainly: MSD ECL titration, Fab 37.2 nM, blank 199.

Test [18] has as its target T18, rHuman CD44/Fc Chimera, CF (R&D Systems Cat#3660-CD) (human, UniProt P16070 21-220).
T18 construct: Bought Fc chimera; Fc part of the bought chimera not given
Briefly: MSD ECL titration, Fab 37.2 nM, blank 199.

The target of test [19] is T19, Recombinant Human DLL4 (R&D Systems Cat#1506-D4/CF) (human, UniProt Q9NR61 27-524).
T19 construct: Bought recombinant protein; also called rHuman DLL4; delta-like protein 4
Put plainly: MSD ECL titration, Fab 37.2 nM, blank 199.
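Also: blank spot per well as comparator with Hit at signal to blank ratio of 4 or more.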

B1: Fab VH5-51_IGHD5-18*01>3_IGHJ4*01 & V3-4_IGLJ1*01 (Fab, V domains shown)
VH: EVQLVQSGAEVKKPGESLKISCKGSGYSFTSYWIGWVRQMPGKGLEWMGIIYPGDSDTRYSPSFQGQVTISADKSISTAYLQWSSLKASDTAMYYCARRGYSYGYDYFDYWGQGTLVTVSS
VL: QTVVTQEPSFSVSPGGTVTLTCGLSSGSVSTSYYPSWYQQTPGQAPRTLIYSTNTRSSGVPDRFSGSILGNKAALTITGAQADDESDYYCVLYMGSGISYVFGTGTKVTVL
notes: Tested as a Fab made in E. coli; also called IGHV5-51*03
B1 had an ECL signal in test [1] of 854.

B2: Fab VH1-46_IGHD3-10*01_IGHJ4*01 & B3_IGKJ1*01 (Fab, V domains shown)
VH: QVQLVQSGAEVKKPGASVKVSCKASGYTFTSYYMHWVRQAPGQGLEWMGIINPSGGSTSYAQKFQGRVTMTRDTSTSTVYMELSSLRSEDTAVYYCAREYYYGSGSYYNDYFDYWGQGTLVTVSS
VL: not shown
notes: also called IGHV1-46*01
For the molecule B2, the ECL signal in [2] was 1060; in [3] it was 903; in [4], 1070; in test [5] it was 426; in test [6] it was 932; in [7], 885. The ECL signal in test [8] was 1260; in test [9] it was 1030; in [10] it was 4310.

B3: Fab VH1-46_IGHD6-6*01_IGHJ1*01 & L6_IGKJ1*01 (Fab, V domains shown)
VH: QVQLVQSGAEVKKPGASVKVSCKASGYTFTSYYMHWVRQAPGQGLEWMGIINPSGGSTSYAQKFQGRVTMTRDTSTSTVYMELSSLRSEDTAVYYCAREEYSSSSAEYFQHWGQGTLVTVSS
VL: not shown
notes: Expressed in E. coli as Fab: heavy chain with CH1 plus Flag and His tags from Plasmid A, kappa light chain constant region from Plasmid C; also called Fab No. 1
As for B3, the ECL signal in test [11] is 649; in [12] it was 228; in test [13], 402; in test [14], 207; in test [15] it was 384; in [16], 295. The ECL signal in test [17] is 315; in test [18] it was 356; in test [19], 16700.
